According to patent US9670514B2, “Method for producing polysaccharide” (SANYO CHEMICAL INDUSTRIES, LTD., priority 2011, dated 2017):

Key:
[1] = Enzyme activity ratio (Y1)=Vmax1/Vmax2 of conversion enzyme (Lineweaver-Burk); assay type: biochemical
From the text: In the present invention, in the case where ribonucleoside diphosphate conversion enzyme (D) is used, an enzyme activity ratio (Y1) calculated from the following formula (1) using enzyme activity Vmax1 and enzyme activity Vmax2 described below is preferably not lower than 0.1 in terms of efficient polysaccharide production and efficient use of the substrate (ribonucleoside diphosphate-monosaccharide (A)). Enzyme activity ratio (Y1)=Vmax1/Vmax2 (1) • Enzyme activity Vmax1: the enzyme activity of ribonucleoside diphosphate conversion enzyme (D) on ribonucleoside diphosphate. • Enzyme activity Vmax2: the enzyme activity of ribonucleoside diphosphate conversion enzyme (D) on ribonucleoside diphosphate-monosaccharide (A).
An enzyme reaction solution (II) containing specific amounts of substrate (ribonucleoside diphosphate or uridine diphosphate-monosaccharide (A)), enzyme (polysaccharide synthase (B) or ribonucleoside diphosphate conversion enzyme (D)), pH adjuster (K), and water is prepared, which is adjusted to a specific temperature and a specific pH. • Phosphate-containing compound (F) is added, if necessary, to the enzyme reaction solution (II) if the enzyme to be used is (D4). Reducing agent (d6) is added if the enzyme is (D6), and raw material (d7) of nucleotide sugar is added if the enzyme is (D7).
After preparation of the enzyme reaction solution (II), it is allowed to stand for enzyme reaction for 1 minute to 100 hours. Next, the amount (X) of the reaction product obtained from the reaction is measured to determine the initial enzyme reaction velocity v. Likewise, the initial enzyme reaction velocity v is determined, using the enzyme reaction solution (II) having a different substrate concentration. A Lineweaver-Burk plot is generated from the above-obtained initial enzyme reaction velocity v and substrate concentration, and the enzyme activity Vmax is determined therefrom.
The enzyme activity Vmax (M/s) is determined using Lineweaver-Burk plot derived from Michaelis-Menten kinetics. […]
In the above measurement, the result determined using ribonucleoside diphosphate conversion enzyme (D) as an enzyme and ribonucleoside diphosphate as a substrate represents Vmax1, and the result determined using ribonucleoside diphosphate conversion enzyme (D) as an enzyme and ribonucleoside diphosphate-monosaccharide (A) as a substrate represents Vmax2. In the case where two or more types of ribonucleoside diphosphate-monosaccharide (A) are used, Vmax2 is determined for each ribonucleoside diphosphate-monosaccharide (A). The enzyme activity ratio (Y1) is also determined for each type from formula (1) using each Vmax2. […]

[2] = Specific activity of ribonucleoside diphosphate conversion enzyme solutions (TLC, UV 260 nm); assay type: biochemical; conditions: 1 mM uridine diphosphate, 30° C., pH 7.0, with the co-substrate of each enzyme
Experimental: Reaction solution (2) was prepared by adding 10 μL of 1 M sucrose aqueous solution and 10 μL of sucrose synthase aqueous solution (D7-1) to 1 mL of aqueous solution R (50 mM phosphate buffer (pH of 7.0) containing 100 mM sodium chloride, 10 mM magnesium chloride, and 1 mM uridine diphosphate). Three such reaction solutions (2) were prepared and allowed to react at 30° C. for 5 minutes, 10 minutes, and 15 minutes, respectively. As for the amount of compound (C-7) as the reaction product (uridine diphosphate-glucose), the reaction product was developed on TLC (PEI-Cellulose plate available from Sigma-Aldrich Corporation, hereinafter the same) (developing solvent: an aqueous solution containing 1 M LiCl and 1 M formic acid, hereinafter the same), and detected with a UV light (260 nm). The specific activity of sucrose synthase aqueous solution (D7-1) was calculated to be 0.3 U/μL from the relationship between the yield of compound (C-7) and the reaction time.
Reaction solution (3) was prepared by adding 0.1 mg of reduced thioredoxin and 10 μL of ribonucleotide diphosphate reductase aqueous solution (D6-1) to 1 mL of aqueous solution R. Three such reaction solutions (3) were prepared and allowed to react at 30° C. for 5 minutes, 10 minutes, and 15 minutes, respectively. As for the amount of compound (C-6) as the reaction product (deoxyuridine diphosphate), the reaction product was developed on TLC and detected with a UV light (260 nm). The specific activity of ribonucleotide diphosphate reductase aqueous solution (D6-1) was calculated to be 0.3 U/μL from the relationship between the yield of compound (C-6) and the reaction time. […]
Reaction solution (5) was prepared by adding 10 μL of nucleotidase aqueous solution (D3-1) to 1 mL of aqueous solution R. Three such reaction solutions (5) were prepared and allowed to react at 30° C. for 5 minutes, 10 minutes, and 15 minutes, respectively. For the amount of compound (C-3) as the reaction product (uridine monophosphate), the reaction product was developed on TLC and detected with a UV light (260 nm). […]

Row | Substance | enzyme activity ratio (Y1) of each type ([1]; Vmax2 substrates UDP-glucuronic acid, -N-acetylglucosamine, -N-acetylgalactosamine, -glucose, -mannose, -glucosamine) | specific activity [2] [U/μL] | enzyme activity ratio (Y1) ([1]; Vmax2 substrate uridine diphosphate-N-acetylglucosamine) | enzyme activity ratio (Y1) ([1]; Vmax2 substrate uridine diphosphate-glucuronic acid) | enzyme activity ratio (Y1) of each type ([1]; Vmax2 substrates uridine diphosphate-glucuronic acid and uridine diphosphate-N-acetylglucosamine)
1 | pyruvate kinase aqueous solution (D4-1-1): pyruvate kinase, SEQ ID NO: 4, derived from Escherichia coli | ≥ 10 | 0.3 | – | – | –
2 | sucrose synthase aqueous solution (D7-1): sucrose synthase, SEQ ID NO: 2, derived from Vicia faba | – | 0.3 | ≥ 10 | ≥ 10 | –
3 | polyribonucleotide nucleotidyltransferase aqueous solution (D5-1): polyribonucleotide nucleotidyltransferase, SEQ ID NO: 6, derived from Escherichia coli | – | 0.3 | – | – | ≥ 10
